For assay [1], the target named is TMEM24 SMP domain (residues 76 to 260) (human) (UniProt O14523). Briefly: SEC. A general note: SEC sorts molecules by how far they enter the pores of the column.
In assay [2] the target is 3xFLAG-TMEM24(76-260) (human) (UniProt O14523). Put plainly: native MS.

For 2 substances, stoichiometry N results are on record in paper PMC5414417.

Substance “TMEM24 SMP domain (residues 76 to 260) (from UniProt O14523 76-260) (domain or fragment)” returned a stoichiometry N in assay [1] of 2.

In assay [2], “3xFLAG-TMEM24(76-260) (from UniProt O14523 76-260) (domain or fragment)” yielded a stoichiometry N of 2.

As usually defined, the stoichiometry N is a count of units in the complex or per binding partner.
